Laboratory results reported in patent publication US10669549B2, “Gold optimized CAR T-cells” (Chimera Bioengineering, Inc., priority 2016, dated 2020).
Substitutions are numbered along the chain they refer to.

Experiments:
Assay type in all cases: cell-based
CD4+ T-cells [1] = assay: Luciferase bioluminescence of transduced T-cells, resting versus stimulated; settings: for bioluminescence as compared to T-cells at resting: Raji target cells (activate CAR), FIG. 17; for amount of bioluminescence, comparison among RDE constructs: with either promoter (MinP or NFAT)
Text: The anti-CD19 CAR cassette and the insert with the luciferase-RDE1 are transcribed in opposite directions, and the control regions for each are located in between the two insert/cassettes. The control region for the Luciferase-RDE1 insert and Luciferase-3′-UTR were either a MinP promoter or an NFAT promoter having the sequences of:
The control region of the anti-CD19 CAR cassette was the MND promoter. CD4+ T-cells were transduced with the bicistronic construct.
The transduced T cells were allowed to return to resting state, and then were tested after stimulation as follows. For the ‘no stimulation’ set, transduced T-cells were incubated for 24 h alone in medium. For the ‘Raji co-culture’ set and the “CD3/CD28 Beads” set, CD19+ Raji B cells or anti-CD3/anti-CD28 beads were incubated with the transduced T cells for 24 h. At 24 h, the T cells were stained for CD25 and CD69, which are activation markers, and subject to flow cytometry to measure these markers and luciferase expression in the T cells.
Combinations of these inserts/cassettes shown in FIG. 17 were placed in the similar lenti virus constructs. The anti-CD19 CAR cassette and the insert with the luciferase-RDE are transcribed in opposite directions, and the control regions for each are located in between the two insert/cassettes. The control region for the Luciferase-RDE insert and Luciferase-3′-UTR were either a MinP promoter or an NFAT promoter. The control region of the anti-CD19 CAR cassette was the MND promoter, and CD4+ T-cells were transduced with the bicistronic construct.
(§1) The transduced T cells were allowed to return to resting state, and then were tested after stimulation as follows. For the ‘no stimulation’ set, transduced T-cells were incubated for 24 h alone in medium. For the ‘Raji co-culture’ set CD19+ Raji B cells were incubated with the transduced T cells for 24 h. At 24 h, the T cells were stained for CD25 and CD69, which are activation markers, and subject to flow cytometry to measure these markers and luciferase expression in the T cells.

CD4+ T-cells [2] = assay: IL-12 expression of transduced T cells by ELISA, resting versus Raji co-culture
Text: The anti-CD19 CAR cassette and the insert with the IL-12-RDE1 are transcribed in opposite directions, and the control regions for each are located in between the two insert/cassettes. The control region for the IL-12-RDE1 insert and IL-12 3′-UTR were either a minP promoter or an NFAT promoter. The control region of the anti-CD19 CAR cassette was the MND promoter. CD4+ T-cells were transduced with the bicistronic construct.
as §1, with “co-culture’ set,” for “co-culture’ set”, “these markers. IL-12” for “these markers and luciferase”, “T cells was measured by ELISA.” for “T cells.”

[3] = Expression from constructs with 3′-UTR RDEs after removal of microRNA binding sites; settings: MIR186 micro-RNA sites removed from the 3′-UTR of IL-2
Text: The AU-rich element from the 3′-UTR of IL-2 has mir-181 and mir 186 microRNA binding sites. Different combinations of the microRNA sites were removed from the 3′-UTR of IL-2. When the MIR186 micro-RNA sites were removed from the 3′-UTR of IL-2 the dynamic range of expression from constructs with this UTR increased 50 fold. The modified IL-2, 3′-UTR replaces CTT in the sequence with GAA and is shown below (the new GAA is underlined in the sequence):
Different combinations of the micro-RNA sites were removed from the 3′UTR of IFNg and tested for increased expression. When the mir125 micro-RNA sites were removed from the 3′-UTR of IFN-γ the expression rate from constructs with this UTR is increased.

B1: RDE1: RNA destabilizing element: endogenous 3′-UTR of IFNg (SEQ ID NO: 30), controlling luciferase or IL-12 in anti-CD19 CAR CD4+ T-cells (nucleic acid, listed as Homo sapiens)
DNA: TGGTTGTCCTGCCTGCAATATTTGAATTTTAAATCTAAATCTATTTATTAATATTTAACATTATTTATATGGGGAATATATTTTTAGACTCATCAATCAAATAAGTATTTATAATAGCAACTTTTGTGTAATGAAAATGAATATCTATTAATATATGTATTATTTATAATTCCTATATCCTGTGACTGTCTCACTTAATCCTTTGTTTTCTGACTAATTAGGCAAGGCTATGTGATTACAAGGCTTTATCTCAGGGGCCAACTAGGCAGCCAACCTAAGCAAGATCCCATGGGTTGTGTGTTTATTTCACTTGATGATACAATGAACACTTATAAGTGAAGTGATACTATCCAGTTACTGCCGGTTTGAAAATATGCCTGCAATCTGAGCCAGTGCTTTAATGGCATGTCAGACAGAACTTGAATGTGTCAGGTGACCCTGATGAAAACATAGCATCTCAGGAGATTTCATGCCTGGTGCTTCCAAATATTGTTGACAACTGTGACTGTACCCAAATGGAAAGTAACTCATTTGTTAAAATTATCAATATCTAATATATATGAATAAAGTGTAAGTTCACAACTA
CD4+ T-cells [1]; MinP promoter
  increase in bioluminescence with CAR stimulation: 4.1 fold
CD4+ T-cells [1]; NFAT promoter
  increase in bioluminescence with CAR stimulation: 8.5 fold
CD4+ T-cells [1]; NFAT promoter, luciferase
  on-off response from CAR stimulation versus TCR stimulation: larger on-off response
CD4+ T-cells [1]
  bioluminescence as compared to T-cells at resting: increase in bioluminescence
  amount of bioluminescence, comparison among RDE constructs: lowest amount of bioluminescence
CD4+ T-cells [1]; all conditions, same promoter
  amount of bioluminescence compared with luciferase not controlled by an RDE (3′-UTR): lower amounts of bioluminescence
CD4+ T-cells [1]; luciferase, Raji co-culture
  on-off response with NFAT promoter compared with MinP promoter and the corresponding RDE: larger on-off response
CD4+ T-cells [2]; MinP promoter
  change in IL-12 expression from resting to CAR stimulation: 6.3 fold
CD4+ T-cells [2]; NFAT promoter
  change in IL-12 expression from resting to CAR stimulation: 168 fold

B2: RDE3: 3′-UTR of IL-2 modified to remove the mir186 sites (CTT replaced with GAA, SEQ ID NO: 29) (nucleic acid, listed as Homo sapiens)
DNA: TAATTAAGTGCTTCCCACTTAAAACATATCAGGCCTTCTATTTATTTAAATATTTAAATTTTATATTTATTGTTGAATGTATGGTTTGCTACCTATTGTAACTATTATTCTTAATCTTAAAACTATAAATATGGATCTTTTATGATTGAATTTGTAAGCCCTAGGGGCTCTAAAATGGTTTCACTTATTTATCCCAAAATATTTATTATTATGTTGAATGTTAAATATAGTATCTATGTAGATTGGTTAGTAAAACTATTTAATAAATTTGATAAATATAAA
CD4+ T-cells [1]; MinP promoter
  increase in bioluminescence with CAR stimulation: 1.4 fold
CD4+ T-cells [1]; NFAT promoter
  increase in bioluminescence with CAR stimulation: 1.3 fold
CD4+ T-cells [1]
  bioluminescence as compared to T-cells at resting: increase in bioluminescence
  amount of bioluminescence, comparison among RDE constructs: highest amount of bioluminescence
[3]
  increase of dynamic range of expression from constructs with this UTR: 50 fold

B3: RDE2: RNA destabilizing element: endogenous 3′-UTR of IL-2 (SEQ ID NO: 28), controlling luciferase in anti-CD19 CAR CD4+ T-cells (nucleic acid, listed as Homo sapiens)
DNA: B2 DNA with G148C, A149T, A150T
CD4+ T-cells [1]; MinP promoter
  increase in bioluminescence with CAR stimulation: 1.8 fold
CD4+ T-cells [1]; NFAT promoter
  increase in bioluminescence with CAR stimulation: 3.1 fold
CD4+ T-cells [1]
  bioluminescence as compared to T-cells at resting: increase in bioluminescence
  amount of bioluminescence, comparison among RDE constructs: between RDE3 and RDE1
